Data reported in patent US20220204609A1.
Blank lines part the entries; values can stand above or below the binder they belong to.

What was measured:
[1] = target: Claudin18.2 protein (Genscript Biotech) (UniProt P56856); test: ELISA, plate coated with Claudin18.2 antigen at 0.2 µg/mL, antibody at 1 µg/mL
[2] = target: Claudin18.2 protein (Genscript Biotech) (UniProt P56856); test: ELISA, plate coated with Claudin18.2 antigen at 0.05 µg/mL, antibody at 1 µg/mL
[3] = target: Claudin18.2 protein (Genscript Biotech) (UniProt P56856); test: ELISA, plate coated with Claudin18.2 antigen at 0.0125 µg/mL, antibody at 1 µg/mL
[4] = target: Claudin18.2 on cells (human) (UniProt P56856); test: cell-based or functional assay
[5] = target: Claudin18.2 on cells (human) (UniProt P56856); test: flow cytometry on NUGC4 cells, antibody at 3 µg/mL
[6] = target: Claudin18.2 on cells (human) (UniProt P56856); test: flow cytometry on NUGC4 cells, antibody at 1.5 µg/mL
[7] = target: Claudin18.2 on cells (human) (UniProt P56856); test: flow cytometry on NUGC4 cells, antibody at 0.75 µg/mL
[8] = target: Claudin18.2 on cells (human) (UniProt P56856); test: flow cytometry on 293T-Claudin18.2 cells, antibody at 3 µg/mL
[9] = target: Claudin18.1 on cells (human) (UniProt P56856); test: flow cytometry on 293T-Claudin18.1 cells, antibody at 3 µg/mL
[10] = target: Claudin18.2 on cells (human) (UniProt P56856); test: flow cytometry on 293T-Claudin18.2 cells, antibody at 1.5 µg/mL
[11] = target: Claudin18.1 on cells (human) (UniProt P56856); test: flow cytometry on 293T-Claudin18.1 cells, antibody at 1.5 µg/mL
[12] = target: Claudin18.2 on cells (human) (UniProt P56856); test: flow cytometry on 293T-Claudin18.2 cells, antibody at 0.75 µg/mL
[13] = target: Claudin18.1 on cells (human) (UniProt P56856); test: flow cytometry on 293T-Claudin18.1 cells, antibody at 0.75 µg/mL
[14] = target: Claudin18.2 on cells (human) (UniProt P56856); test: flow cytometry on 293T-Claudin18.2 cells, antibody at 0.375 µg/mL
[15] = target: Claudin18.1 on cells (human) (UniProt P56856); test: flow cytometry on 293T-Claudin18.1 cells, antibody at 0.375 µg/mL

- OD450 [1]: 2.38
- OD450 [2]: 0.484
- OD450 [3]: 0.165
B1: CLDQ1-CA841-IgG1 (antibody, V domains shown)
VH: QVQLVQSGAEVKKPGSSVKVSCKASGGTFSSYAISWVRQAPGQGLEWMGRIIPILGIANYAQKFQGRVTVTADKSTSTAYMELSSLRSEDTAVYYCARERDNWDPYYYYYGMDVWGQGTTVTVSS
VL: DIQMTQSPSTLSASVGDRVTITCRASQSINSWLAWYQQKPGKAPKLLIYKASSLESGVPSRFSGSGSGTEFTLTISSLQPDDFATYYCQQYNSFPLTFGGGTKVEIKR

- ADCC inhibition rate, %, antibody 0.5 µg/mL, 293T-Claudin18.2 target cells, PBMC effectors, LDH [4]: 15%
- ADCC inhibition rate, %, antibody 5 µg/mL, 293T-Claudin18.2 target cells, PBMC effectors, LDH [4]: 25%
- ADCC inhibition rate, %, antibody 50 µg/mL, 293T-Claudin18.2 target cells, PBMC effectors, LDH [4]: 45%
- mean fluorescence intensity [5]: 42600
- mean fluorescence intensity [6]: 20400
- mean fluorescence intensity [7]: 15000
- mean fluorescence intensity [8]: 33300
- mean fluorescence intensity [9]: 34400
- mean fluorescence intensity [10]: 34200
- mean fluorescence intensity [11]: 17900
- mean fluorescence intensity [12]: 17300
- mean fluorescence intensity [13]: 15200
- mean fluorescence intensity [14]: 9360
- mean fluorescence intensity [15]: 7960
- OD450 [1]: 3.19
- OD450 [2]: 1.28
- OD450 [3]: 0.492
B2: CLDMix-CA818-IgG1 (antibody, V domains shown)
VH: GAATAVGRRTVEASETLSLTCAVYGGSFSGYYWSWIRQPPGKGLEWIGEINHSGSTNYNPSLKSRVTISVDTSKNQFSLKLSSVTAADTAVYYCARGPYDILTGYYPYWYFDLWGRGTLVTVSS
VL: DIVMTQSPSTLSASVGDRVTITCRASQGIRNDLGWYQQKPGKAPKLLIYDASSLQSGVPSRFSGSGYGTDFTLTISSLQPEDFATYYCLQDYNYPWTFGQGTKLEIKR
